# From patent publication US20060252130A1 (ACGT PREGENOMICS, published 2006)
# Ends that are not written are not given here.
# B1: PyVP1-3C-WW[N-14] (other)
# chain: MSGWTEHKSPDGRTYYYNTETKQSTWEKPDDGHMSTKACPRPAPVPKLLIKGGMEVLDLVTGPDSVTEIEAFLNPRMGQPPTPESLTEGGQYYGWSRGINLATSDTEDSPGNNTLPTWSMAKLQLPMLNEDLTCDTLQMWEAVSVKTEVVGSGSLLDVHGFNKPTDTVNTKGISTPVEGSQYHVFAVGGEPLDLQGLVTDARTKYKEEGVVTIKTITKKDMVNKDQVLNPISKAKLDKDGMYPVEIWHPDPAKNENTRYFGNYTGGTCTPPVLQFTNTLTTVLLDENGVGPLSKGEGLYLSSVDIMGWRVTRNYDVHHWRGLPRYFKITLRKRWVKNPYPMASLISSLFNNMLPQVQGQPMEGENTQVEEVRVYDGTEPVPGDPDMTRYVDRFGKTKTVFPPG
# notes: The range 15-384 follows from 'N-terminus shortened by 14 amino acids'
# B2: fluorescence-marked proline-rich peptide Cys-Ser-Gly-Pro-Pro-Pro-Pro-Pro-Pro-Pro-Pro-Leu-Pro (fluorescein-maleimide label) (peptide)
# peptide: C(fluorescein‑maleimide)SGPPPPPPPPLP
# notes: also called fluorescence-labeled peptide; fluorescence-marked peptide
# B3: synthetic proline-rich peptide Cys-Ser-Gly-Pro-Pro-Pro-Pro-Pro-Pro-Pro-Pro-Leu-Pro (peptide)
# peptide: CSGPPPPPPPPLP
# notes: also called CSGP8LP; proline peptide
# B4: [PyVP1-3C-WW1]-intein-CBD (other)
# chain: MSGWTEHKSPDGRTYYYNTETKQSTWEKPDDGHMAPKRKSGVSKSETKSTKACPRPAPVPKLLIKGGMEVLDLVTGPDSVTEIEAFLNPRMGQPPTPESLTEGGQYYGWSRGINLATSDTEDSPGNNTLPTWSMAKLQLPMLNEDLTCDTLQMWEAVSVKTEVVGSGSLLDVHGFNKPTDTVNTKGISTPVEGSQYHVFAVGGEPLDLQGLVTDARTKYKEEGVVTIKTITKKDMVNKDQVLNPISKAKLDKDGMYPVEIWHPDPAKNENTRYFGNYTGGTCTPPVLQFTNTLTTVLLDENGVGPLSKGEGLYLSSVDIMGWRVTRNYDVHHWRGLPRYFKITLRKRWVKNPYPMASLISSLFNNMLPQVQGQPMEGENTQVEEVRVYDGTEPVPGDPDMTRYVDRFGKTKTVFPPG
# notes: also called (PyVP1-3C-WW1)-intein-CBD fusion protein
# What was measured:
# [1] = biological target: B2; experiment: incubation of labelled peptide with PyVP1-3C-WW[N-14], capsid assembly, gel filtration
# PyVP1-WW150 [2] = biological target: T1, PyVP1-WW150 (mouse polyoma virus; Mus musculus …); experiment: gel filtration (TSK gel G5000PWXL), co-elution of labelled peptide with capsids and pentamers, absorption at 490 nm
# T1 construct: WW domain inserted between VP1 positions 148 and 149; Soluble pentamer after intein cleavage; also called PyVP1-WW150 variant; PyVP1-WW150 protein
# PyVP1-WW150 [3] = biological target: T1, PyVP1-WW150; experiment: SPR (Biacore X), peptide on CM5 chip, Dulbecco's PBS
# PyVP1-WW150-D8C = biological target: T2, PyVP1-WW150-D8C (mouse polyoma virus; Mus musculus …); experiment: surface plasmon resonance; strengthened by 500 mM ammonium sulfate
# T2 construct: Position 8 is counted on the WW domain itself
# PyVP1-WW150 [4] = biological target: T1, PyVP1-WW150; experiment: SPR (Biacore X), peptide on CM5 chip; summary of the three analyses of example 2
# PyVP1-WW150 [5] = biological target: T1, PyVP1-WW150; experiment: SPR (Biacore X), peptide on CM5 chip, 10 mM HEPES, 1 mM EDTA, 150 mM NaCl, pH 7.2, 25 C, protein 5 to 50 nM
# [6] = biological target: B3; experiment: affinity column with peptide, crude extract, wash with 2 M NaCl, elution with 2% SDS, SDS gel
binder,measurement,setting,value
B1,binding result,[1],binds
B2,binding result,PyVP1-WW150 [2],binds
B3,koff,PyVP1-WW150 [3],0.0018 s⁻¹
same,kon,PyVP1-WW150 [3],200000 M⁻¹ s⁻¹
same,binding result,PyVP1-WW150-D8C,binds
same,Kd,PyVP1-WW150 [4],20 nM
same,Kd,PyVP1-WW150 [5],5 nM
B4,binding result,[6],binds
